# From the supplement of paper PMC5998384
# What was measured:
# [1] = system: HeLa Kyoto; experiment: solubility in G1/S (NP-40 vs SDS abundance) (log2 ratio); higher = more soluble; conditions: cell cycle stage: G1/S
# [2] = system: HeLa Kyoto; experiment: solubility change mitosis vs G1/S (difference of NP-40 vs SDS log2 ratios) (log2 ratio difference); higher = more soluble in mitosis
# 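Wherever solubility change mitosis vs G1/S (difference of NP-40 vs SDS log2 ratios) is given: synchronized HeLa Kyoto cells (double thymidine block for G1/S, nocodazole release for mitosis), protein amounts in NP-40 versus SDS lysates quantified by mass spectrometry, three biological replicates.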
# 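Wherever solubility in G1/S (NP-40 vs SDS abundance) is given: HeLa Kyoto cells arrested at G1/S by double thymidine block, proteins quantified by TMT10plex mass spectrometry in mild NP-40 versus SDS extracts, three biological replicates.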
Substance,solubility in G1/S (log2) [1],solubility change mitosis (log2) [2]
MEPRRAAPGVPGWGSREAAGSASAAELVYHLAGALGTELQDLARRFGPEAAAGLVPLVVRALELLEQAAVGPAPDSLQVSAQPAEQELRRLREENERLRRELRAGPQEERALLRQLKEVTDRQRDELRAHNRDLRQRGQETEALQEQLQRLLLVNAELRHKLAAMQTQLRAAQDRERERQQPGEAATPQAKERARGQAGRPGHQHGQEPEWATAGAGAPGNPEDPAEAAQQLGRPSEAGQCRFSREEFEQILQERNELKAKVFLLKEELAYFQRELLTDHRVPGLLLEAMKVAVRKQRKKIKAKMLGTPEEAESSEDEAGPWILLSDDKGDHPPPPESKIQSFFGLWYRGKAESSEDETSSPAPSKLGGEEEAQPQSPAPDPPCSALHEHLCLGASAAPEA [RILP],0.551,0.11
MESRDHNNPQEGPTSSSGRRAAVEDNHLLIKAVQNEDVDLVQQLLEGGANVNFQEEEGGWTPLHNAVQMSREDIVELLLRHGADPVLRKKNGATPFILAAIAGSVKLLKLFLSKGADVNECDFYGFTAFMEAAVYGKVKALKFLYKRGANVNLRRKTKEDQERLRKGGATALMDAAEKGHVEVLKILLDEMGADVNACDNMGRNALIHALLSSDDSDVEAITHLLLDHGADVNVRGERGKTPLILAVEKKHLGLVQRLLEQEHIEINDTDSDGKTALLLAVELKLKKIAELLCKRGASTDCGDLVMTARRNYDHSLVKVLLSHGAKEDFHPPAEDWKPQSSHWGAALKDLHRIYRPMIGKLKFFIDEKYKIADTSEGGIYLGFYEKQEVAVKTFCEGSPRAQREVSCLQSSRENSHLVTFYGSESHRGHLFVCVTLCEQTLEACLDVHRGEDVENEEDEFARNVLSSIFKAVQELHLSCGYTHQDLQPQNILIDSKKAAHLADFDKSIKWAGDPQEVKRDLEDLGRLVLYVVKKGSISFEDLKAQSNEEVVQLSPDEETKDLIHRLFHPGEHVRDCLSDLLGHPFFWTWESRYRTLRNVGNESDIKTRKSESEILRLLQPGPSEHSKSFDKWTTKINECVMKKMNKFYEKRGNFYQNTVGDLLKFIRNLGEHIDEEKHKKMKLKIGDPSLYFQKTFPDLVIYVYTKLQNTEYRKHFPQTHSPNKPQCDGAGGASGLASPGC [RNASEL],-0.104,-0.0377
MESTPSRGLNRVHLQCRNLQEFLGGLSPGVLDRLYGHPATCLAVFRELPSLAKNWVMRMLFLEQPLPQAAVALWVKKEFSKAQEESTGLLSGLRIWHTQLLPGGLQGLILNPIFRQNLRIALLGGGKAWSDDTSQLGPDKHARDVPSLDKYAEERWEVVLHFMVGSPSAAVSQDLAQLLSQAGLMKSTEPGEPPCITSAGFQFLLLDTPAQLWYFMLQYLQTAQSRGMDLVEILSFLFQLSFSTLGKDYSVEGMSDSLLNFLQHLREFGLVFQRKRKSRRYYPTRLAINLSSGVSGAGGTVHQPGFIVVETNYRLYAYTESELQIALIALFSEMLYRFPNMVVAQVTRESVQQAIASGITAQQIIHFLRTRAHPVMLKQTPVLPPTITDQIRLWELERDRLRFTEGVLYNQFLSQVDFELLLAHARELGVLVFENSAKRLMVVTPAGHSDVKRFWKRQKHSS [GTF2H4],-0.135,0.00292
MRDRLPDLTACRKNDDGDTVVVVEKDHFMDDFFHQVEEIRNSIDKITQYVEEVKKNHSIILSAPNPEGKIKEELEDLNKEIKKTANKIRAKLKAIEQSFDQDESGNRTSVDLRIRRTQHSVLSRKFVEAMAEYNEAQTLFRERSKGRIQRQLEITGRTTTDDELEEMLESGKPSIFTSDIISDSQITRQALNEIESRHKDIMKLETSIRELHEMFMDMAMFVETQGEMINNIERNVMNATDYVEHAKEETKKAIKYQSKARRKKWIIIAVSVVLVAIIALIIGLSVGK [STX2],0.137,0.0333
MARISFSYLCPASWYFTVPTVSPFLRQRVAFLGLFFISCLLLLMLIIDFRHWSASLPRDRQYERYLARVGELEATDTEDPNLNYGLVVDCGSSGSRIFVYFWPRHNGNPHDLLDIKQMRDRNSQPVVKKIKPGISAMADTPEHASDYLRPLLSFAAAHVPVKKHKETPLYILCTAGMRLLPERKQLAILADLVKDLPLEFDFLFSQSQAEVISGKQEGVYAWIGINFVLGRFDHEDESDAEATQELAAGRRRTVGILDMGGASLQIAYEVPTSTSVLPAKQEEAAKILLAEFNLGCDVQHTEHVYRVYVTTFLGFGGNFARQRYEDLVLNETLNKNRLLGQKTGLSPDNPFLDPCLPVGLTDVVERNSQVLHVRGRGDWVSCGAMLSPLLARSNTSQASLNGIYQSPIDFNNSEFYGFSEFFYCTEDVLRIGGRYHGPTFAKAAQDYCGMAWSVLTQRFKNGLFSSHADEHRLKYQCFKSAWMYQVLHEGFHFPYDYPNLRTAQLVYDREVQWTLGAILYKTRFLPLRDLRQEGVRQAHGSWFRLSFVYNHYLFFACILVVLLAIFLYLLRLRRIHHRQTRASAPLDLLWLEEVVPMMGVQVGP [ENTPD7],-0.358,0.145
MASEAPSPPRSPPPPTSPEPELAQLRRKVEKLERELRSCKRQVREIEKLLHHTERLYQNAESNNQELRTQVEELSKILQRGRNEDNKKSDVEVQTENHAPWSISDYFYQTYYNDVSLPNKVTELSDQQDQAIETSILNSKDHLQVENDAYPGTDRTENVKYRQVDHFASNSQEPASALATEDTSLEGSSLAESLRAAAEAAVSQTGFSYDENTGLYFDHSTGFYYDSENQLYYDPSTGIYYYCDVESGRYQFHSRVDLQPYPTSSTKQSKDKKLKKKRKDPDSSATNEEKDLNSEDQKAFSVEHTSCNEEENFANMKKKAKIGIHHKNSPPKVTVPTSGNTIESPLHENISNSTSFKDEKIMETDSEPEEGEITDSQTEDSYDEAITSEGNVTAEDSEDEDEDKIWPPCIRVIVIRSPVLQIGSLFIITAVNPATIGREKDMEHTLRIPEVGVSKFHAEIYFDHDLQSYVLVDQGSQNGTIVNGKQILQPKTKCDPYVLEHGDEVKIGETVLSFHIHPGSDTCDGCEPGQVRAHLRLDKKDESFVGPTLSKEEKELERRKELKKIRVKYGLQNTEYEDEKTLKNPKYKDRAGKRREQVGSEGTFQRDDAPASVHSEITDSNKGRKMLEKMGWKKGEGLGKDGGGMKTPIQLQLRRTHAGLGTGKPSSFEDVHLLQNKNKKNWDKARERFTENFPETKPQKDDPGTMPWVKGTLE [AGGF1],-0.292,-0.0218
MDNAVDGLDKASIANSDGPTAGSQTPPFKRKGKLSTIGKIFKPWKWRKKKTSDKFRETSAVLERKISTRQSREELIRRGVLKELPDQDGDVTVNFENSNGHMIPIGEESTREENVVKSEEGNGSVSEKTPPLEEQAEDKKENTENHSETPAAPALPPSAPPKPRPKPKPKKSPVPPKGATAGASHKGDEVPPIKKNTKAPGKQAPVPPPKPASRNTTREAAGSSHSKKTTGSKASASPSTSSTSSRPKASKETVSSKAGTVGTTKGKRKTDKQPITSHLSSDTTTSGTSDLKGEPAETRVESFKLEQTVPGAEEQNTGKFKSMVPPPPVAPAPSPLAPPLPLEDQCITASDTPVVLVSVGADLPVSALDPSQLLWAEEPTNRTTLYSGTGLSVNRENAKCFTTKEELGKTVPQLLTPGLMGESSESFSASEDEGHREYQANDSDSDGPILYTDDEDEDEDEDGSGESALASKIRRRDTLAIKLGNRPSKKELEDKNILQRTSEEERQEIRQQIGTKLVRRLSQRPTTEELEQRNILKQKNEEEEQEAKMELKRRLSRKLSLRPTVAELQARRILRFNEYVEVTDSPDYDRRADKPWARLTPADKAAIRKELNEFKSTEMEVHEESRQFTRFHRP [PHACTR2],0.45,-0.286
MEAEESEKAATEQEPLEGTEQTLDAEEEQEESEEAACGSKKRVVPGIVYLGHIPPRFRPLHVRNLLSAYGEVGRVFFQAEDRFVRRKKKAAAAAGGKKRSYTKDYTEGWVEFRDKRIAKRVAASLHNTPMGARRRSPFRYDLWNLKYLHRFTWSHLSEHLAFERQVRRQRLRAEVAQAKRETDFYLQSVERGQRFLAADGDPARPDGSWTFAQRPTEQELRARKAARPGGRERARLATAQDKARSNKGLLARIFGAPPPSESMEGPSLVRDS [ABT1],-0.95,0.803
ZNF106,-1.19,0.915
